The values below come from US20150056208A1 (VILARA, published 2015).

Holding throughout (assay): SPR, peptide on CAP chip, 1:1 fit
For orientation: Surface plasmon resonance follows binding to a sensor surface in real time, without labels.

Assay [1] addresses T1, citrullinated human enolase peptide 1 (CEP-1) (human, cysteine pairing not given here; also: biotinylated form used in SPR, place not given here).
T1 construct: Coated directly on plates in ELISA; biotinylated and captured on a CAP chip in SPR; also called cit a-enolase; citrullinated alpha-enolase peptide 1
T1 peptide: CKIHA[Cit]EIFDS[Cit]GNPTVEC

In assay [2] the target is T2, citrullinated human vimentin residues 60-75 (cit-vim) (human, also: biotinylated, place not given here).
T2 construct: Biotinylated peptide on streptavidin plates (ELISA) or CAP chip (SPR); also called Vim60-75; cit vimentin
T2 peptide: VYAT[Cit]SSAV[Cit]L[Cit]SSVP

The target of assay [3] is T3, citrullinated human fibrinogen residues 36-52 (cit-fib) (human, also: biotinylated, place not given here).
T3 construct: Biotinylated peptide on streptavidin plates (ELISA) or CAP chip (SPR); also called Fib36-52; cit fibrinogen
T3 peptide: NEEGFFSA[Cit]GHRPLDKK

Where no end group is shown, it is not given here. [ ]: non-standard residue; d: D form. Cit = NC(=O)NCCC[C@H](N)C(=O)O

B1: antibody A09 (antibody)
chain 1: KSRTEIHSRVCGGHRAQLQGQLALGRVNGYGDSTLEGRVVVNAPTKVDNPNRLQPLPWGLADPHPVVTIIPNGASRDSAGEGQGLRRLHQSW
chain 2: GPLSDLINDDFGGFAWVLLVPGDKSITHNITAACSAGDGDRLSRRPRHGGRLSQHRL
Consider B1, for which the koff (usually the first-order rate constant of dissociation) in assay [1] worked out at 0.0429 s⁻¹; in assay [2] it was 0.0433 s⁻¹; in assay [3], 0.0291 s⁻¹. Further, the Kd (commonly the concentration at which binding is half-saturated) in assay [2] amounted to 180 nM; in assay [3], 160 nM.
